One substance from US20050118719A1 can be followed below.

The target of the assay is temperature sensitive C1 repressor polypeptide from thermoinducible bacteriophage P1Cm carrying the c1.100 mutation (bacteriophage P1). Briefly: cell-based or functional assay.

In turn, “Coi polypeptide (C1 inactivator polypeptide) from bacteriophage P1” displayed a Basal activity (31° C.), Miller units; β-Gal from Op72lacZcoi reporter in K. pneumoniae of 36.4 Miller units; a Fold-induction; β-Gal from Op72lacZcoi reporter in K. pneumoniae of 19 fold; an Induced activity (42° C.), Miller units; β-Gal from Op72lacZcoi reporter in K. pneumoniae of 698 Miller units.
